The values that follow come from article doi:10.1101/2023.12.07.570680.

For data set [1], the target named is T1, EMB976-MBP (Arabidopsis thaliana, UniProt O04647 1-1038).
T1 sequence: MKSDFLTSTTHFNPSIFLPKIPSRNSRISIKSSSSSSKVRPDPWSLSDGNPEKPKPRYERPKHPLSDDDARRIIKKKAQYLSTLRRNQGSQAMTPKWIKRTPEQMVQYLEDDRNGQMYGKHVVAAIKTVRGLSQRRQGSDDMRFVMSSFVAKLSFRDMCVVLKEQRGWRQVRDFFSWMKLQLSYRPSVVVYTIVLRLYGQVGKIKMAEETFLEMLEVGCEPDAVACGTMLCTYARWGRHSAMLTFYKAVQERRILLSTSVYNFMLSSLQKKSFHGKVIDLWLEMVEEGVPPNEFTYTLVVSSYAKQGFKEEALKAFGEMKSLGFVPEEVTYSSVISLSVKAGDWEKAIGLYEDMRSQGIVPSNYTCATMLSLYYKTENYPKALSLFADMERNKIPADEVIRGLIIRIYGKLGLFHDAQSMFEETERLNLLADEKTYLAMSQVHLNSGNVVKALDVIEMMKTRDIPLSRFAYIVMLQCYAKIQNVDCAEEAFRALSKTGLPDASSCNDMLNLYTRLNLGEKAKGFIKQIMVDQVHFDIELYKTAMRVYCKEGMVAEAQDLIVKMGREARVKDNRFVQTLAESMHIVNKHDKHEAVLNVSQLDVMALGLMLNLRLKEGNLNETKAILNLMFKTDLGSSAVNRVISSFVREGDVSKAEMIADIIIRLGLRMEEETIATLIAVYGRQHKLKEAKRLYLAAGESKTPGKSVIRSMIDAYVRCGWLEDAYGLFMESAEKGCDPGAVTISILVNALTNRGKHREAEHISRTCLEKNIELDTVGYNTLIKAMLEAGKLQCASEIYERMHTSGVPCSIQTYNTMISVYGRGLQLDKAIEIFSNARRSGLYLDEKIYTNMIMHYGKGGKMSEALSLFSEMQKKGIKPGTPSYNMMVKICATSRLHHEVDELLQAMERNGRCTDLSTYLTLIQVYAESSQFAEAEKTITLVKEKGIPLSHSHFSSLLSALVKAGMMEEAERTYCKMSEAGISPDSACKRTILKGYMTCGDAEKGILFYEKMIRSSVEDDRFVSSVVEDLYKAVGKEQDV
As to the kind of experiment: EMSA.

The target in data set [2] is T2, EMB1006-MBP (Arabidopsis thaliana, UniProt Q9FGR7 44-723).
T2 sequence: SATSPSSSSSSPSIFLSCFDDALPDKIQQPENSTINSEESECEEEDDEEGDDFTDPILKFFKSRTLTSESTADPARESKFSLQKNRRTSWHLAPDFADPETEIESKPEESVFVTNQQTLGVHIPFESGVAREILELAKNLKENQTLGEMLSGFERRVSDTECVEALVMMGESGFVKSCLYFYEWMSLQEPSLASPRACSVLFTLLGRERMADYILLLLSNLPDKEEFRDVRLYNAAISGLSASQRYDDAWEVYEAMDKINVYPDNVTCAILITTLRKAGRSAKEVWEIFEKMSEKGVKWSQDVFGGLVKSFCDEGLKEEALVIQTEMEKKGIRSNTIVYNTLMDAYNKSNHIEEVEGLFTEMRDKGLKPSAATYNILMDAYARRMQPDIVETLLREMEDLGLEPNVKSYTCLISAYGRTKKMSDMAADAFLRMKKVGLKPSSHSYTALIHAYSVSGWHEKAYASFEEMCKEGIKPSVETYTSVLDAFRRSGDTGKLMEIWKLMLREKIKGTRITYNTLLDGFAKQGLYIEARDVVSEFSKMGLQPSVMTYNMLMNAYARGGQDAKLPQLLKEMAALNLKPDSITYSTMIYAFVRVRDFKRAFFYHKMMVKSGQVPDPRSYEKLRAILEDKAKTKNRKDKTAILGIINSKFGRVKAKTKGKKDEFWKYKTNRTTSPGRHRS
As to the kind of experiment: competition.

Data set [3] addresses T2, EMB1006-MBP. In words: EMSA. (A gel shift assay detects complexes by their altered migration in electrophoresis.)

Take GAAGAGGUUUUUCAAAUGAUA (ssRNA) [Cy5-clpP1-intron2-976]: the binding result in data set [1] is given as “no binding”.

Turning to UUUUUUAGAUUAAAAAAAAAUUCG (ssRNA) [clpP1-intron2-Cold], the binding result in data set [2] is given as “no binding”.

Take AAUUACCAAACGUAUAGCAUUCC (ssRNA) [Cy5-clpP1-exon2]: the binding result in data set [3] is given as “binds”.

Take AAUUACCAAACGUAUAGCAUUCC (ssRNA) [clpP1-exon2-Cold]: the binding result in data set [2] is on record as “binds”.
